Laboratory results: patent publication US8476051B2, “Thermostable alcohol dehydrogenase derived from Thermococcus guaymasensis” (priority 2008, dated 2013)
Several values for one entry are separate records, joined by “and”; a condition that tells them apart may be missing. Equal entries are not always repeated. Where two headings read alike, the source gives them in different places.

How the values were obtained:
T. guaymasensis ADH [1] = target: T1, T. guaymasensis ADH (Thermococcus guaymasensis, UniProt F8S123); assay: Kinetic parameters, alcohol oxidation with NADP+; type: biochemical; settings: co-substrate NADP^+ (0.4 mM)
Experimental: (§1) The purified enzyme (0.25 μg) initiated the enzyme assay. […] The protein concentrations of all samples were determined using the Bradford method and bovine serum albumin served as the standard protein (Bradford 1976).
(§2) Apparent values of Km and Vmax were calculated using the curve fittings of SigmaPlot (Systat Software Inc., San Jose, Calif., USA).

T. guaymasensis ADH [2] = assay: Effect of metal ions on enzyme activity (2-butanone reduction); type: biochemical, Thermococcus guaymasensis; settings: up to 100 μM in the assay mixture
Experimental: (§3) The effect of pH on the enzyme activities was determined over a range of 5.5-11.4. The buffers (100 mM) used were phosphate (pH 5.5-8.0), EPPS (8.0-9.0), glycylglycine (9.0-9.7), and CAPS (9.7-11.4). The effect of the temperature on the enzyme activity was examined at temperatures from 30 to 95° C. Enzyme thermostability was determined by incubating the enzyme in sealed serum bottles at 80° C. and 95° C., respectively. Residual activity was assayed at various time intervals under the standard assay conditions. Substrate specificity was determined using primary and secondary alcohols (50 mM), diols and polyols (50 mM), or aldehydes and ketones (6 mM) under standard assay conditions.
Metal ions were added in the enzyme assay mixture at a final concentration of 100 μM.

C[C@H](O)[C@@H](C)O = assay: purified protein, by the assay type; settings: other: co-substrate NADP^+ (0.4 mM); 80.0 °C
C[C@@H](O)[C@@H](C)O = assay: purified protein, by the assay type; settings: other: co-substrate NADP^+ (0.4 mM); 80.0 °C
T. guaymasensis ADH [3] = target: T1, T. guaymasensis ADH; assay: Kinetic parameters, ketone reduction with NADPH; type: biochemical
Experimental: as §1, §2

[4] = substrate: CCC(C)=O; assay: purified protein, by the assay type; settings: other: co-substrate NADPH (0.2 mM); 80.0 °C
[5] = substrate: CC(=O)C(C)=O; assay: purified protein, by the assay type; settings: other: co-substrate NADPH (0.2 mM); 80.0 °C
[6] = substrate: CC(=O)C(C)O; assay: purified protein, by the assay type; type: biochemical, Thermococcus guaymasensis; settings: other: co-substrate NADPH (0.2 mM); 80.0 °C
[7] = ADH specific activity (spectrophotometric enzyme assay); type: biochemical; settings: 80° C.; for Specific activity: standard assay
Experimental: as §1
The reaction was initiated by adding enzymes.

[8] = Temperature dependence of enzyme activity; type: biochemical
Experimental: as §3
(§4) The effect of the temperature on the enzyme activity was examined at temperatures from 30 to 95° C. The activities were measured using standard assay conditions. Enzyme thermostability was evaluated by incubating the enzyme in sealed serum bottle at 80° C. and 95° C. respectively, and measuring the residual activities at different time intervals under the standard assay conditions.

[9] = Experimental: as §3, with “Enzyme thermostability was determined by incubating the enzyme in sealed serum bottles at 80° C. and 95° C., respectively.” left out
as §4

[10] = Oxygen sensitivity (residual activity after exposure to air); type: physicochemical; settings: for t1/2 upon exposure to the air: room temperature
Experimental: The effect of oxygen on enzyme activity was investigated by exposing the enzyme samples in the air at room temperature and determining the residual activity after oxygen exposure. The exposure was performed in the presence or absence of DDT and SDT. The residual activities of each sample at different time intervals were tested parallelly under the standard assay conditions.

[11] = Optimum pH of enzyme activity; type: biochemical
Experimental: as §3
All the catalytic properties of native and recombinant TgADH were determined using the in vitro enzyme assay described above. The optimal pH of ethanol-dependent oxidation of native and recombinant TgADHs was determined by testing and comparing the enzyme activity at a series of pHs. Standard enzyme assay at 80° C. were applied using a set of 100 mM buffers: HEPES (pH 6.5, 7.0, 7.5 and 8.0), EPPS (pH 8.0, 8.5, 8.8, 9.0), glycine (pH 9.0, 9.5, 10.0) and CAPS (pH 10.0, 10.5, 11.0). The optimal pH of acetaldehyde-dependent reduction of native and recombinant TgADH was measured between pH 5.5 and 9.5 using the following buffers (100 mM): citrate (pH 5.5 and 6.0), PIPES (pH 6.0, 6.5 and 7.0), HEPES (pH 7.0, 7.5 and 8.0), EPPS (pH 8.0, 8.5, and 9.0), and glycine (pH 9.0 and 9.5).

[12] = remark: listed apart in the source
Excerpt: Enzymes resistant to solvent inactivation are of great interest from scientific and practical points of view.

T. guaymasensis ADH [13] = target: T1, T. guaymasensis ADH; assay: Stereoselective conversion between acetoin and 2,3-butanediol (chiral GC); type: biochemical
Experimental: All the reactions were carried out at 30° C. for 24 hours unless specified. After that, the reaction mixture (1 ml) was extracted with 1 ml ethyl acetate or dichloride methane with shaking on a Gyrotory water bath shaker model G76 (New Brunswick Scientific Co., INC., NJ, USA) at 350 rpm for 30 min (room temperature). The stereoselectivity of the purified enzyme was determined using the Shimadzu GC-14A gas chromatography equipped with a CP-Chirasil-Dex CB column (0.25 mm ID×25 m length, Varian Inc., Palo Alto, Calif., USA). The following GC operating conditions included the FID detector (250° C.) at a sensitivity range of 10 and helium as the carrier gas at a linear velocity of 40 cm s^−1. […] The reaction mixture after extraction (0.5 μl) was directly applied onto the injector (200° C.) for each assay. The peak areas were quantitated using specific external standards.

[14] = cited from earlier work

C[C@H](O)[C@H](C)O [(2S,3S)-(+)-2,3-butanediol]
Apparent Vmax (T. guaymasensis ADH [1]): 769 U mg^−1
kcat (T. guaymasensis ADH [1]): 512 s⁻¹

[Zn+2] [Zn^2+]
Effect on enzyme activity (butanol formation) (T. guaymasensis ADH [2]): inhibited
Effect on enzyme activity (butanol formation) (T. guaymasensis ADH [2]; listed as zinc): blocked

T. guaymasensis ADH (Thermococcus guaymasensis)
Km (C[C@H](O)[C@@H](C)O): 19300 µM
Vmax (C[C@H](O)[C@@H](C)O): 1430 µmol/min/mg
kcat (C[C@H](O)[C@@H](C)O): 952 s⁻¹
kcat/Km (C[C@H](O)[C@@H](C)O): 49000 M⁻¹ s⁻¹
Km (C[C@@H](O)[C@@H](C)O): 15200 µM
Vmax (C[C@@H](O)[C@@H](C)O): 1110 µmol/min/mg
kcat (C[C@@H](O)[C@@H](C)O): 740 s⁻¹
kcat/Km (C[C@@H](O)[C@@H](C)O): 49000 M⁻¹ s⁻¹

nicotinamide adenine dinucleotide phosphate [NADPH]
Apparent Km for NADPH, times lower than for NADP^+ (T. guaymasensis ADH [3]): 40 times

B1: T. guaymasensis ADH (Thermococcus guaymasensis) (protein)
chain: SKMRGFAMVDFGKAEWIEKERPKPGPYDAIVKPIAVAPCTSDIHTVFEAAFPREMCEFPRILGHEAVGEVVEVGSHVKDFKPGDRVVVPAITPDWRTLDVQRGYHQHSGGMLAGWKFSNPLKEGGKDGVFAEYFHVNDADMNLAHLPDEIKPEVAVMATDMMTTGFHGAELADIPLGGTVAVIGIGPVGLMAVAGARLLGAGRIIAVGSRPVCVEAAKYYGATDIVNRREHPDIAGRILELTGGEGVDSVIIAGGNVDVMKTAVKIVKPGGTVANINYFGSGDYLPIPRIEWGQGMAHKTIKGGLCPGGRLRMERLLDLIKYGRVDPSRLITHKFKGFDKIPEALYLMKDKPKDLIKPVVIIEE
Km [4]: 310 µM
Vmax [4]: 285 U mg^−1
kcat [4]: 190 s⁻¹
kcat/Km [4]: 613,000 s^−1M^−1
Km [5]: 210 µM
Vmax [5]: 303 µmol/min/mg
kcat [5]: 202 s⁻¹
kcat/Km [5]: 962000 M⁻¹ s⁻¹
Km [6]: 320 µM
Vmax [6]: 213 µmol/min/mg
kcat [6]: 142 s⁻¹
kcat/Km [6]: 444000 M⁻¹ s⁻¹

B2: TgADH: alcohol dehydrogenase purified from Thermococcus guaymasensis, SEQ ID NO:4, homotetramer, zinc-containing, NADP^+-dependent (protein, listed as Thermococcus guaymasensis)
chain: SKMRGFAMVDFGKAEWIEKERPKPGPYDAIVKPIAVAPCTSDIHTVFEAAFPREMCEFPRILGHEAVGEVVEVGSHVKDFKPGDRVVVPAITPDWRTLDVQRGYHQHSGGMLAGWKFSNPLKEGGKDGVFAEYFHVNDADMNLAHLPDEIKPEVAVMATDMMTTGFHGAELADIPLGGTVAVIGIGPVGLMAVAGARLLGAGRIIAVGSRPVCVEAAKYYGATDIVNRREHPDIAGRILELTGGEGVDSVIIAGGNVDVMKTAVKIVKPGGTVANINYFGSGDYLPIPRIEWGQGMAHKTIKGGLCPGGRLRMERLLDLIKYGRVDPSRLITHKFKGFDKIPEALYLMKDKPKDLIKPVVIIEE
modifications: homotetramer, zinc-containing
Enzyme (specific) activity ([7]; 2-butanol as assay substrate): 1149 U mg^−1
Specific activity [7]: 1049 U/mg
Optimal temperature ([8]; tested 30 to 95° C.): over 95 °C
Thermostability [9]: 24 hr at 95 °C
t1/2 (thermostability) [9]: 70 h
Activity after incubation ([9]; 80° C. for 40 hours): 60%
Activity after exposure to air (in words) ([10]; exposed to air for a week): lost activity
t1/2 upon exposure to the air [10]: 6 h
t1/2 upon exposure to the air ([10]; listed as T. guaymasensis ADH): about 4 hours
Optimal pH, acetaldehyde reduction [11]: 7.5
Optimal pH, ethanol oxidation [11]: 10.5
Optimal pH, formation of alcohols (2-butanone reduction) [11]: 7.5
Optimal pH, oxidation of alcohols (2-butanol) [11]: 10.5
Enzyme activity remaining, of full activity [12]: about 40%
Methanol concentration at which half of full activity remained [12]: about 24 % (v/v)
Methanol concentration up to which the enzyme was active [12]: up to 40 % (v/v)
Solvent tolerance ([12]; methanol): 24% methanol
Enzyme activity retained (in words) ([12]; methanol up to 5% (v/v)): almost its full activity
Chiral compound synthesis preference (T. guaymasensis ADH [13]): R-configured

B3: recombinant TgADH: recombinant wild-type TgADH polypeptide (SEQ ID NO: 8) expressed in E. coli BL21-codon plus RIL with vector pET30a (protein)
chain: MHHHHHHSSGLVPRGSGMKETAAAKFERQHMDSPDLGTDDDDKAMADIGSEFMSKMRGFAMVDFGKAEWIEKERPKPGPYDAIVKPIAVAPCTSDIHTVFEAAFPREMCEFPRILGHEAVGEVVEVGSHVKDFKPGDRVVVPAITPDWRTLDVQRGYHQHSGGMLAGWKFSNPLKEGGKDGVFAEYFHVNDADMNLAHLPDEIKPEVAVMATDMMTTGFHGAELADIPLGGTVAVIGIGPVGLMAVAGARLLGAGRIIAVGSRPVCVEAAKYYGATDIVNRREHPDIAGRILELTGGEGVDSVIIAGGNVDVMKTAVKIVKPGGTVANINYFGSGDYLPIPRIEWGQGMAHKTIKGGLCPGGRLRMERLLDLIKYGRVDPSRLITHKFKGFDKIPEALYLMKDKPKDLIKPVVIIEE
modifications: Wild-type with vector coding region
Specific activity [7]: 1079 U/mg and 1073 U/mg
Specific activity ([7]; listed as recombinant enzyme): 1073 U/mg
Highest activity in temperature dependence test ([8]; at 95° C.): 1533 U/mg
t1/2 (thermostability) [9]: about 26 hours
Enzyme activity after heat treatment of cell extract (in words) ([9]; 60° C. for half an hour): no loss
Residual activity after incubation ([9]; 42 hours at 80° C.): more than 60%
t1/2 upon exposure to the air [10]: about 4 hours
Optimal pH, formation of alcohols (2-butanone reduction) [11]: 7.5
Optimal pH, oxidation of alcohols (2-butanol) [11]: 10.5

B4: T. brockii: T brockii ADH available at Sigma Aldrich, essentially T ehtanolicus ADH (protein, UniProt P14941 1-352, looked up)
NADP-dependent isopropanol …: MKGFAMLSIGKVGWIEKEKPAPGPFDAIVRPLAVAPCTSDIHTVFEGAIGERHNMILGHEAVGEVVEVGSEVKDFKPGDRVVVPAITPDWRTSEVQRGYHQHSGGMLAGWKFSNVKDGVFGEFFHVNDADMNLAHLPKEIPLEAAVMIPDMMTTGFHGAELADIELGATVAVLGIGPVGLMAVAGAKLRGAGRIIAVGSRPVCVDAAKYYGATDIVNYKDGPIESQIMNLTEGKGVDAAIIAGGNADIMATAVKIVKPGGTIANVNYFGEGEVLPVPRLEWGCGMAHKTIKGGLCPGGRLRMERLIDLVFYKRVDPSKLVTHVFRGFDNIEKAFMLMKDKPKDLIKPVVILA
Thermostability ([14]; at 93.8° C.): 60 min at
Solvent tolerance ([14]; isopropanol): 64%
